Blank lines part the entries; values can stand above or below the binder they belong to.
B2: HGF-α (domain or fragment, UniProt P14210 32-473, looked up)
chain: QRKRRNTIHEFKKSAKTTLIKIDPALKIKTKKVNTADQCANRCTRNKGLPFTCKAFVFDKARKQCLWFPFNSMSSGVKKEFGHEFDLYENKDYIRNCIIGKGRSYKGTVSITKSGIKCQPWSSMIPHEHSFLPSSYRGKDLQENYCRNPRGEEGGPWCFTSNPEVRYEVCDIPQCSEVECMTCNGESYRGLMDHTESGKICQRWDHQTPHRHKFLPERYPDKGFDDNYCRNPDGQPRPWCYTLDPHTRWEYCAIKTCADNTMNDTDVPLETTECIQGQGEGYRGTVNTIWNGIPCQRWDSQYPHEHDMTPENFKCKDLRENYCRNPDGSESPWCFTTDPNIRVGYCSQIPNCDMSHGQDCYRGNGKNYMGNLSQTRSGLTCSMWDKNMEDLHRHIFWEPDASKLNENYCRNPDDDAHGPWCYTGNPLIPWDYCPISRCEGDT

How the values were obtained:
Experiment in all cases: ELISA
[1] = molecular target: B2
[2] = molecular target: Decoy Met (UniProt P08581 25-932)
[3] = molecular target: IPT (UniProt P08581 563-932)
[4] = molecular target: active HGF (UniProt P14210 32-494; P14210 495-728)
active HGF, sequence (P14210 495-728, one chain of several): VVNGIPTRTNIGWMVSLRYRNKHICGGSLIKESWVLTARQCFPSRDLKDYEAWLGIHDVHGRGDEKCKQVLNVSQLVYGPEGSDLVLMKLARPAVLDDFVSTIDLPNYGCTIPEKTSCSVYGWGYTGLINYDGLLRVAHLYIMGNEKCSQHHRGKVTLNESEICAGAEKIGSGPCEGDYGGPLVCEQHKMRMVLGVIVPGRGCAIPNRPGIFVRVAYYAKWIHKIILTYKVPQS

Binder: B2
fold reduced affinity compared with active HGF [2]: 4 fold

B3: HGF NK1 (domain or fragment, UniProt P14210-1 32-205, looked up)
chain: QRKRRNTIHEFKKSAKTTLIKIDPALKIKTKKVNTADQCANRCTRNKGLPFTCKAFVFDKARKQCLWFPFNSMSSGVKKEFGHEFDLYENKDYIRNCIIGKGRSYKGTVSITKSGIKCQPWSSMIPHEHSFLPSSYRGKDLQENYCRNPRGEEGGPWCFTSNPEVRYEVCDIPQ
fold reduced affinity compared with active HGF [2]: 10 fold
fold less tightly than active HGF [3]: 10 times

The remaining lines, values ahead:

binding result [1]: binds
B1: IPT Δ1 (domain or fragment, UniProt P08581 657-932, looked up)
chain: PVITSISPKYGPMAGGTLLTLTGNYLNSGNSRHISIGGKTCTLKSVSNSILECYTPAQTISTEFAVKLKIDLANRETSIFSYREDPIVYEIHPTKSFISGGSTITGVGKNLNSVSVPRMVINVHEAGRNFTVACQHRSNSEIICCTTPSLQQLNLQLPLKTKAFFMLDGILSKYFDLIYVHNPVFKPFEKPVMISMGNENVLEIKGNDIDPEAVKGEVLKVGNKSCENIHLHSEAVLCTVPNDLLKLNSELNIEWKQAISSTVLGKVIVQPDQNFT

binding result [4]: binds
B4: PSI-IPT (domain or fragment, UniProt P08581 516-932, looked up)
chain: NGLGCRHFQSCSQCLSAPPFVQCGWCHDKCVRSEECLSGTWTQQICLPAIYKVFPNSAPLEGGTRLTICGWDFGFRRNNKFDLKKTRVLLGNESCTLTLSESTMNTLKCTVGPAMNKHFNMSIIISNGHGTTQYSTFSYVDPVITSISPKYGPMAGGTLLTLTGNYLNSGNSRHISIGGKTCTLKSVSNSILECYTPAQTISTEFAVKLKIDLANRETSIFSYREDPIVYEIHPTKSFISGGSTITGVGKNLNSVSVPRMVINVHEAGRNFTVACQHRSNSEIICCTTPSLQQLNLQLPLKTKAFFMLDGILSKYFDLIYVHNPVFKPFEKPVMISMGNENVLEIKGNDIDPEAVKGEVLKVGNKSCENIHLHSEAVLCTVPNDLLKLNSELNIEWKQAISSTVLGKVIVQPDQNFT

From paper PMC2475716 (The Journal of Biological Chemistry, 2008)
